Results reported in PMC10308901, “In vitro and ex vivo proteomics of Mycobacterium marinum biofilms and the development of biofilm-binding synthetic nanobodies” (mSystems, 2023).

Tests used:
[1] = molecular target: T1, Mycobacterium marinum GroEL1, recombinant (Mycobacterium marinum, UniProt B2HD10 1-539); assay: BLI; conditions: both partners purified
T1 construct: also called Mmr GroEL1

[2] = molecular target: T2, Mycobacterium marinum GroEL2, recombinant, biotinylated AVI-tagged form (Mycobacterium marinum, UniProt B2HQP9 1-541); assay: BLI; conditions: both partners purified
T2 construct: also called Mmr GroEL2; biotinylated GroEL protein

Row | Binder | Kd [1] [nM] | Kd [2] [nM]
1 | GroEL1 sybody number 1 (VHH, not shown: Myc, C-terminal, kept; His6, C-terminal, kept) VHH: QVQLVESGGGLVQAGGSLRLSCAASGFPVEQRQMYWYRQAPGKEREWVAAIQSYGKRTKYADSVKGRFTISRDNAKNTVYLQMNSLKPEDTAVYYCVVYVGGGYKGQGTQVTVSA | ~130 | 
2 | GroEL2 sybody number 3 (VHH, also called GroEL2_SB3; not shown: Myc, C-terminal, kept; His6, C-terminal, kept) VHH: QVQLVESGGGLVQAGGSLRLSCAASGFPVAYWEMVWYRQAPGKEREWVAAIRSTGWKTVYADSVKGRFTISRDNAKNTVYLQMNSLKPEDTAVYYCTAVYVGVHYKGQGTQVTVSA |  | ~18
3 | GroEL2 sybody number 8 (VHH, not shown: Myc, C-terminal, kept; His6, C-terminal, kept) VHH: QVQLVESGGGLVQAGGSLRLSCAASGFPVYMSWMYWYRQAPGKEREWVAAIMSEGAGTWYADSVKGRFTISRDNAKNTVYLQMNSLKPEDTAVYYCNVKDTGSFHAQYDYWGQGTQVTVSA |  | ~13
4 | GroEL2 sybody number 7 (VHH, not shown: Myc, C-terminal, kept; His6, C-terminal, kept) VHH: QVQLVESGGGLVQAGGSLRLSCAASGFPVNDAWMYWYRQAPGKEREWVAAIMSMGFGTWYADSVKGRFTISRDNAKNTVYLQMNSLKPEDTAVYYCNVKDRGKEHFSYDYWGQGTQVTVSA |  | ~100
5 | GroEL2 sybody number 9 (VHH, also called GroEL2_SB9; not shown: Myc, C-terminal, kept; His6, C-terminal, kept) VHH: QVQLVESGGGLVQAGGSLRLSCAASGFPVYQSWMYWYRQAPGKEREWVAAIMSDGSGTWYADSVKGRFTISRDNAKNTVYLQMNSLKPEDTAVYYCNVKDFGHSRSRYDYWGQGTQVTVSA |  | ~277
6 | GroEL2 sybody number 22 (VHH, not shown: Myc, C-terminal, kept; His6, C-terminal, kept) VHH: QVQLVESGGGLVQAGGSLRLSCAASGFPVYHSWMYWYRQAPGKEREWVAAIMSDGHGTWYADSVKGRFTISRDNAKNTVYLQMNSLKPEDTAVYYCNVKDTGSSTTIYDYWGQGTQVTVSA |  | ~507
7 | GroEL2 sybody number 28 (VHH, not shown: Myc, C-terminal, kept; His6, C-terminal, kept) VHH: QVQLVESGGGLVQAGGSLRLSCAASGFPVDAYWMYWYRQAPGKEREWVAAIMSSGHGTWYADSVKGRFTISRDNAKNTVYLQMNSLKPEDTAVYSCNVKDKGAQAAWYDYWGQGTQVTVSA |  | ~35
8 | GroEL2 sybody number 31 (VHH, not shown: Myc, C-terminal, kept; His6, C-terminal, kept) VHH: QVQLVESGGGLVQAGGSLRLSCAASGFPVWMEWMYWYRQAPGKEREWVAAIMSEGDGTWYADSVKGRFTISRDNAKNTVYLQMNSLKPEDTAVYYCNVKDFGYNNNYYDYWGQGTQVTVSA |  | ~66
9 | GroEL2 sybody number 33 (VHH, not shown: Myc, C-terminal, kept; His6, C-terminal, kept) VHH: QVQLVESGGGLVQAGGSLRLSCAASGFPVYQHWMYWYRQAPGKEREWVAAIMSQGAGTWYADSVRGRFTISRDNAKNTVYLQMNSLKPEDTAVYYCNVKDLGKAEYNYDYWGQGTQVTVSA |  | ~244
10 | GroEL2 sybody number 10 (VHH, not shown: Myc, C-terminal, kept; His6, C-terminal, kept) VHH: QVQLVESGGGLVQAGGSLRLSCAASGFPVKHWYMHWYRQAPGKEREWVAAIQSTGSYTAYADSVKGRFTISRDNAKNTVYLQMNSLKPEDTAVYYCNVKEYGFYHASYDYWGQGTQVTVSA |  | ~193
11 | GroEL2 sybody number 11 (VHH, not shown: Myc, C-terminal, kept; His6, C-terminal, kept) VHH: QVQLVESGGGLVQAGGSLRLSCAASGFPVDSAYMWWYRQAPGKEREWVAAIESNGEYTFYADSVKGRFTISRDNAKNTVYLQMNSLKPEDTAVYYCNVKDTGAHHSYYDYWGQGTQVTVSA |  | ~271
12 | GroEL2 sybody number 27 (VHH, not shown: Myc, C-terminal, kept; His6, C-terminal, kept) VHH: QVQLVESGGGLVQAGGSLRLSCAASGFPVWKAYMWWYRQAPGKEREWVAAIESNGAYTFYADSVKGRFTISRDNAKNTVYLQMNSLKPEDTAVYYCNVKDTGSDSENYDYWGQGTQVTVSA |  | ~101
13 | GroEL2 sybody number 16 (VHH, not shown: Myc, C-terminal, kept; His6, C-terminal, kept) VHH: QVQLVESGGGLVQAGGSLRLSCAASGFPVSSSTMTWYRQAPGKEREWVAAIESWGAYTWYADSVKGRFTISRDNAKNTVYLQMNSLKPEDTAVYYCNVKDYDGVADVIYDYWGQGTQVTVSA |  | ~15
14 | GroEL2 sybody number 19 (VHH, not shown: Myc, C-terminal, kept; His6, C-terminal, kept) VHH: QVQLVESGGGLVQAGGSLRLSCAASGFPVEWLEMAWYRQAPGKEREWVAAIYSYGMETEYADSVKGRFTISRDNAKNTVYLQMNSLKPEDTAVYYCNVKDGGHAAWWYDYWGQGTQVTVSA |  | ~366
15 | GroEL1 sybody number 5 (VHH, not shown: Myc, C-terminal, kept; His6, C-terminal, kept) VHH: QVQLVESGGGLVQAGGSLRLSCAASGFPVEHKQMRWYRQAPGKEREWVAAIESSGQYTIYADSVKGRFTISRDNAKNTVYLQMNSLKPEDTAVYYCFVGVGAGYYGQGTQVTVSA | ~127 | 
16 | GroEL2 sybody number 32 (VHH, not shown: Myc, C-terminal, kept; His6, C-terminal, kept) VHH: QVQLVESGGGLVQAGGSLRLSCAASGFPVVSQFMEWHRQAPGKEREWVAAIDSTGYSTFYADSVKGRFTISRDNAKNTVYLQMNSLKPEDTAVYYCNVKDAGEGQEQYDYWGQGTQVTVSA |  | ~153
17 | GroEL1 sybody number 9 (VHH, not shown: Myc, C-terminal, kept; His6, C-terminal, kept) VHH: QVQLVESGGGLVQAGGSLRLSCAASGLPVWQQGMTWYRQAPGKEREWVAAIDSVGAQTYYADSVKGRFTISRDNAKNTVYLQMNSLKPEDTAVYYCAVNVGARYIGQGTQVTVSA | ~64 | 
18 | GroEL1 sybody number 12 (VHH, not shown: Myc, C-terminal, kept; His6, C-terminal, kept) VHH: QVQLVESGGGLVQAGGSLRLSCAASGFPVTQAWMEWYRQAPGKEREWVAAIFSHGGGTFYADSVKGRFTISRDNAKNTVYLQMNSLKPEDTAVYYCNVKDTGERDNWYDYWGQGTQVTVSA | ~14 | 
19 | GroEL1 sybody number 18 (VHH, not shown: Myc, C-terminal, kept; His6, C-terminal, kept) VHH: QVQLVESGGGLVQAGGSLRLSCAASGFPVKTKHMYWYRQAPGKEREWVAAITSIGMITAYADSVKGRFTISRDNAKNTVYLQMNSLKPEDTAVYYCNVKDWGTNRQAYDYWGQGTQVTVSA | ~22 | 
20 | GroEL1 sybody number 31 (VHH, also called GroEL1_SB31; not shown: Myc, C-terminal, kept; His6, C-terminal, kept) VHH: QVQLVESGGGSVQAGGSLRLSCAASGTIYKIYYLGWFRQAPGKEREGVAALNTFSGGTYYADSVKGRFTVSLDNAKNTVYLQMNSLKPEDTALYYCAAAYDMEGYAWPLYWWHYEYWGQGTQVTVSA | ~92 | 
21 | GroEL2 sybody number 1 (VHH, not shown: Myc, C-terminal, kept; His6, C-terminal, kept) VHH: QVQLVESGGGLVQAGGSLRLSCAASGFPVAITYMHWYRQAPGKEREWVAAISSTGKTTWYADSVKGRFTISRDNAKNTVYLQMNSLKPEDTAVYYCLVEVGHYYKGQGTQVTVSA |  | ~591
22 | GroEL2 sybody number 2 (VHH, not shown: Myc, C-terminal, kept; His6, C-terminal, kept) VHH: QVQLVESGGGLVQAGGSLRLSCAASGFPVSSSTMTWYRQAPGKEREWVAAIDSVGNETYYADSVKGRFTISRDNAKNTVYLQMNSLKPEDTAVYYCAVFVGSYYGQGTQVTVSA |  | ~157
